Measurements taken from publication PMC6269467.

How the values were obtained:
[1] = target: αE-catenin actin-binding domain, wild type (αEcat-ABD-WT) (mouse) (UniProt P26231); assay: SEC-MALS; elution profiles at 3 mg/ml to 30 mg/ml; MALS of the dimer peak at 30 mg/ml; dimer to monomers; Superdex-200 Increase 10/300 GL; 20 mM Tris-HCl pH 7.0, 100 mM NaCl
[2] = target: αN-catenin actin-binding domain with the helix-1 mutation (αNcat-ABD-H1) (mouse) (UniProt Q61301); assay: crystal structure; αNcat-ABD-H1 crystals in forms A (2.2 Å) and B (2.8 Å), grown at 277 K by vapor diffusion; molecular replacement with PDB 4K1O

Row | Substance | stoichiometry N [1] | stoichiometry N [2]
1 | αE-catenin actin-binding domain, wild type (αEcat-ABD-WT) (from UniProt P26231 652-906) (domain or fragment) | 2 | 
2 | αN-catenin actin-binding domain with the helix-1 mutation (αNcat-ABD-H1) (from UniProt Q61301-2 651-905) (domain or fragment) |  | 2
